Experimental data published in PMC3725505.

Assays:
[1] = molecular target: Kelch domain of human Keap1 (residues 321-609) (human) (UniProt Q14145); assay: ITC
[2] = molecular target: Keap1 (Kelch domain) Kelch domain, 321-609 (UniProt Q14145); assay: isothermal titration calorimetry; details: reference: unphosphorylated WTX 20-mer peptide; sites S286

Sequence of Kelch domain of human Keap1 (residues 321-609) (human) (Q14145 321-609): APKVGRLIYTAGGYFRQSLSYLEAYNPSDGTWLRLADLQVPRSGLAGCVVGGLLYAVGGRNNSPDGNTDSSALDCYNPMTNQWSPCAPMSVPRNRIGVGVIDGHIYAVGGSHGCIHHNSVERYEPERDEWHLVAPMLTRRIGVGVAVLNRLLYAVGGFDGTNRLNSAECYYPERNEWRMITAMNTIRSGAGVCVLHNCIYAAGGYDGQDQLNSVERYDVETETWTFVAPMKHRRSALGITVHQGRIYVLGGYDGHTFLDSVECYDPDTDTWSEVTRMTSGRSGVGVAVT

Row | Kd [1] [nM] | dH [1] [kcal/mol] | stoichiometry N [1] | KD [2] | Substance
1 | 1100 | -15.1 | – | – | FAC1 peptide (20-mer)
2 | – | -19.3 | 1.01 | – | PALB2 peptide (20-mer)
3 | 230 | -19.1 | 1.07 | – | PGAM5 peptide (20-mer)
4 | – | – | – | weaker; reference 0.25 ± 0.02 | WTX Kelch-binding region (from UniProt Q5JTC6) WTX pS286 20-mer peptide
5 | 250 | -18 | 1.04 | – | WTX peptide (20-mer, unphosphorylated)
